Data taken from patent US20080070791A1 (ZEPHYR PROTEOMIX, published 2008).

Biological target: T1, α4β1 integrin expressed on Jurkat cells (human, UniProt P13612 34-1032; P05556 21-798)
T1 construct: whole, on cells; Fluorescence-labeled Jurkat cells applied to the microarray; also called receptor recognizing the CS1 peptide
Test: cell adhesion of labeled Jurkat cells on microarray
Experimental: Jurkat T-cells, a human leukemia line, were grown under the appropriate growing conditions. Shortly before the adherence assay, cells were washed with 5 mM EDTA in Tris-buffered saline (TBS, 10 mM Tris-HCl, pH 7.4, 150 mM NaCl) and then incubated with Cyto 82 (2 μM final concentration) for 30 min under continuous agitation. Labeled cells were washed twice with the same buffer and applied directly on the fabricated microarray slides.
The model of interaction chosen for this purpose was α4β1-CS1-interaction model. α4β1 is an integrin expressed by several types of adherent cells and can mediate cell matrix contact trough the known ligand fibronectin. […] The slides were washed extensively and the interaction was scanned by the microarray scanner (FIG. 12).

T1 sequence (P13612 34-1032, chain 1 of 2): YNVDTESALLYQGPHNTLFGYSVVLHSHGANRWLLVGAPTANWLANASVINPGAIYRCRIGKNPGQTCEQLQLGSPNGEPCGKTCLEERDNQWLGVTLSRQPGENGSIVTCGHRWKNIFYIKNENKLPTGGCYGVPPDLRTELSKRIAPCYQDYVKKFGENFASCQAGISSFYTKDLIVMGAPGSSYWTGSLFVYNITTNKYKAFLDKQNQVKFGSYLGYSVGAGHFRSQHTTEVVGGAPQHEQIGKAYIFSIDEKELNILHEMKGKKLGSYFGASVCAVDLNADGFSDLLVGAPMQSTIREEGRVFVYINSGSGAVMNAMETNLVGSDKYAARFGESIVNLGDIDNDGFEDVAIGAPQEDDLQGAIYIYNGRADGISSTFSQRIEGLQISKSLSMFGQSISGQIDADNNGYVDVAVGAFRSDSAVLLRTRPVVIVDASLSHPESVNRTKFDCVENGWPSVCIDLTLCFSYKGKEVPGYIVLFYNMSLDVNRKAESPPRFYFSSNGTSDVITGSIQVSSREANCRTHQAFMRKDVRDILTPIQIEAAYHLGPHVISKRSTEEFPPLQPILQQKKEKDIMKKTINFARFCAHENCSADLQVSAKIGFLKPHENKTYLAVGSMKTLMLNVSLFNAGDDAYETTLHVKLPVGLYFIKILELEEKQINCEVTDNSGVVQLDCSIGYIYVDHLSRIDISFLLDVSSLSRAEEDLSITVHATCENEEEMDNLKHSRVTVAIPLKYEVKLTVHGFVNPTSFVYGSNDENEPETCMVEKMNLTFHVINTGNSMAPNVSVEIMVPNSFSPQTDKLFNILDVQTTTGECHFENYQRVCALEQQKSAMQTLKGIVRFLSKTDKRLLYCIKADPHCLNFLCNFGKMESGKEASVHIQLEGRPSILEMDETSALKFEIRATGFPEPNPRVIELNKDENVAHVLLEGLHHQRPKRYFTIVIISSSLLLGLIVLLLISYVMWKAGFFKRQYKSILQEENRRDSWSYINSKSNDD
T1 sequence (P05556 21-798, chain 2 of 2): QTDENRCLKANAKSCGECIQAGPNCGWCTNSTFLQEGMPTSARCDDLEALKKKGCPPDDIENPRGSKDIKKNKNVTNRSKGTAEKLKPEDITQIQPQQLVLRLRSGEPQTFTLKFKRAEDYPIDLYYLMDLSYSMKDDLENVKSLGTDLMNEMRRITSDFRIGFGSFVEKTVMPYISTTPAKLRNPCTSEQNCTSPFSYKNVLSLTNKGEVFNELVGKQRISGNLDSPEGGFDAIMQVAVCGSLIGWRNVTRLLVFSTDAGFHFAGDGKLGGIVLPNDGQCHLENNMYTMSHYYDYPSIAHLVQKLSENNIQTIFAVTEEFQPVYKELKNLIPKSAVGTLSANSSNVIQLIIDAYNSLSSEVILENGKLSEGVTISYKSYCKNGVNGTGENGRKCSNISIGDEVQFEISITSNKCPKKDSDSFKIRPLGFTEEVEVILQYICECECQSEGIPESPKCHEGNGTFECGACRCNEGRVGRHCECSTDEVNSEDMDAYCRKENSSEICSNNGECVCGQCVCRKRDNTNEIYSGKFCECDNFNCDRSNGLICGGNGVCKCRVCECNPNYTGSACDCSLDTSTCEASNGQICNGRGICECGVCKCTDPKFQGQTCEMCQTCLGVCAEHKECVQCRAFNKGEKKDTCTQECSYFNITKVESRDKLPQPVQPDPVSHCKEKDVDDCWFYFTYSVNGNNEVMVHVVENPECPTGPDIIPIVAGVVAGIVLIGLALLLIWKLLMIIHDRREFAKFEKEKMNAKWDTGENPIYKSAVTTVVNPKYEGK

B1: recombinant protein comprising the cellulose binding region of SEQ ID NO:4 (other)
chain: NATPTKGATPTNTATPTKSATATPTRPSVPTNTPTNTPANTPVSGNLKVEFYNSNPSDTTNSINPQFKVTNTGSSAIDLSKLTLRYYYTVDGQKDQTFWCDHAAIIGSNGSYNGITSNVKGTFVKMSSSTNNADTYLEISFTGGTLEPGAHVQIQGRFAKNDWSNYTQSNDYSFKSASQFVEWDQVTAYLNGVLVWGKEPGGSVVPSTQPVTTPPATTKPPATTKPPATTIPPSDDPNA
  binding result: no binding (tested: highest array concentration)
